± gives the uncertainty stated by the source.
B1: Poly(rC)-binding protein 1, residues 278 to 350; numbered along this chain, Q15365 (parent)
chain: TQTTHELTIPNNLIGCIIGRQGANINEIRQMSGAQIKIANPVEGSSGRQVTITGSAASISLAQYLINARLSSE

Variants of: B1
Test: abundance fitness (aPCA) (normalised: wild type 0, dead -1); higher = more abundant; growth selection in yeast, the domain comes from the species named
Conditions: Homo sapiens

Variant	abundance fitness
L65G	-0.416 ± 0.056
L65W	-0.166 ± 0.066
L65P	-0.779 ± 0.25
L65V	-0.789 ± 0.18
L65R	-0.689 ± 0.1
L65A	0.076 ± 0.056
L65S	-0.582 ± 0.13
L65E	-0.191 ± 0.08
L65T	-0.462 ± 0.14
L65Y	-0.093 ± 0.13
L65Q	-0.442 ± 0.14
L65M	-0.36 ± 0.18
L65D	-0.419 ± 0.23
L65K	-0.422 ± 0.25
T53H	-0.491 ± 0.15
T53F	-0.321 ± 0.12
T53Y	-0.129 ± 0.13
T53N	-0.385 ± 0.16
T53I	-0.125 ± 0.12
T53Q	-0.075 ± 0.053
T53D	-0.51 ± 0.11
T53S	-0.041 ± 0.042
T53A	-0.126 ± 0.036
T53C	-0.137 ± 0.071

Variant	abundance fitness
T53M	-0.063 ± 0.056
T53W	-0.274 ± 0.049
T53P	-0.777 ± 0.12
T53G	-0.308 ± 0.036
T53K	0.075 ± 0.049
T53R	-0.007 ± 0.031
T53V	-0.118 ± 0.039
I59V	0.063 ± 0.047
I59Y	-0.93 ± 0.42
I59D	-0.567 ± 0.29
I59E	-0.626 ± 0.081
I59C	0.098 ± 0.068
I59P	-0.764 ± 0.098
I59W	-0.752 ± 0.082
I59L	-0.355 ± 0.061
I59T	-0.008 ± 0.044
I59N	-0.423 ± 0.22
I59Q	-0.421 ± 0.08
I59A	-0.044 ± 0.035
I59G	-0.66 ± 0.051
I59M	-0.477 ± 0.12
I59K	-0.323 ± 0.092
Q63G	-0.264 ± 0.058
Q63H	-0.124 ± 0.23

Variant	abundance fitness
Q63D	0.091 ± 0.12
Q63C	-0.078 ± 0.11
Q63P	-1.17 ± 0.27
Q63L	0.116 ± 0.06
Q63A	-0.077 ± 0.045
Q63V	-0.019 ± 0.046
Q63I	0.064 ± 0.12
Q63F	-0.175 ± 0.12
Q63W	-0.28 ± 0.082
Q63T	0.006 ± 0.053
Q63Y	-0.469 ± 0.22
Q63K	0.223 ± 0.069
Q63M	-0.04 ± 0.07
Q63E	-0.002 ± 0.061
T51C	0.024 ± 0.085
T51H	-0.287 ± 0.17
T51M	-0.066 ± 0.043
T51E	-0.097 ± 0.038
T51D	-0.542 ± 0.22
T51V	-0.027 ± 0.033
T51Q	-0.088 ± 0.048
T51P	-0.682 ± 0.11
T51S	-0.02 ± 0.042
T51N	-0.427 ± 0.23

Variant	abundance fitness
T51L	-0.034 ± 0.037
T51F	-0.071 ± 0.12
T51W	-0.063 ± 0.058
T51Y	-0.07 ± 0.099
T51K	0.005 ± 0.052
T51I	-0.107 ± 0.11
T51G	-0.574 ± 0.065
T51R	-0.054 ± 0.043
A57C	-0.035 ± 0.077
A57Y	-0.194 ± 0.12
A57V	-0.243 ± 0.046
A57K	0.116 ± 0.051
A57W	-0.247 ± 0.055
A57Q	0.068 ± 0.065
A57G	-0.126 ± 0.037
A57F	-0.096 ± 0.12
A57S	0.016 ± 0.042
A57D	0.074 ± 0.071
A57I	-0.127 ± 0.14
A57R	0.059 ± 0.035
A57E	0.088 ± 0.05
A57L	-0.327 ± 0.055
A57P	-0.02 ± 0.053
A57M	-0.204 ± 0.069

Variant	abundance fitness
A57T	-0.125 ± 0.056
A57N	0.061 ± 0.086
A57H	0.051 ± 0.11
Y64L	-0.031 ± 0.078
Y64F	-0.266 ± 0.23
Y64R	0.28 ± 0.043
Y64C	0.195 ± 0.09
Y64M	-0.098 ± 0.11
Y64W	-0.209 ± 0.11
Y64P	-0.312 ± 0.13
Y64D	0.411 ± 0.072
Y64V	0.121 ± 0.05
Y64E	0.298 ± 0.053
Y64H	0.064 ± 0.14
Y64N	0.328 ± 0.082
Y64T	0.287 ± 0.059
Y64Q	0.14 ± 0.098
Y64G	0.212 ± 0.038
Y64K	0.233 ± 0.074
Y64S	0.24 ± 0.05
I52S	-0.574 ± 0.09
I52V	-0.218 ± 0.037
I52G	-1.05 ± 0.1
I52C	-1.03 ± 0.27

Variant	abundance fitness
I52D	-0.583 ± 0.25
I52T	-0.739 ± 0.15
I52M	-0.225 ± 0.053
I52H	-0.927 ± 0.29
I52Y	-1.09 ± 0.39
I52F	-0.694 ± 0.26
I52N	-0.878 ± 0.47
I52L	-0.039 ± 0.037
I52K	-0.631 ± 0.098
I52R	-0.996 ± 0.1
I52W	-1.02 ± 0.16
I52P	-0.698 ± 0.15
I52E	-0.732 ± 0.097
S60A	-0.064 ± 0.037
S60E	0.124 ± 0.042
S60H	0.051 ± 0.084
S60F	-0.102 ± 0.12
S60I	-0.337 ± 0.22
S60C	-0.098 ± 0.062
S60K	-0.047 ± 0.063
S60G	-0.05 ± 0.034
S60L	-0.354 ± 0.075
S60V	-0.352 ± 0.073
S60D	0.191 ± 0.061

Variant	abundance fitness
S60Q	0.023 ± 0.058
S60T	0.012 ± 0.046
S60Y	-0.298 ± 0.11
S60P	-0.635 ± 0.084
L61C	0.022 ± 0.063
L61F	-0.074 ± 0.097
L61M	0.001 ± 0.065
L61E	0.091 ± 0.033
L61I	0.012 ± 0.089
L61N	-0.278 ± 0.13
L61W	-0.238 ± 0.054
L61V	-0.052 ± 0.041
L61R	0.253 ± 0.033
L61P	-0.943 ± 0.16
L61G	-0.504 ± 0.044
L61K	0.266 ± 0.039
L61T	0.139 ± 0.044
L61D	0.02 ± 0.07
L61S	0.084 ± 0.039
L61Q	0.111 ± 0.044
I66F	-0.414 ± 0.22
I66A	-0.438 ± 0.1
I66C	-0.188 ± 0.2
I66G	-0.594 ± 0.13

Variant	abundance fitness
A62K	-0.888 ± 0.14
A62D	-0.711 ± 0.24
A62F	-0.657 ± 0.26
A62P	-0.606 ± 0.1
A62G	-0.622 ± 0.071
A62W	-0.882 ± 0.31
A62V	-0.448 ± 0.07
A62M	-0.948 ± 0.16
A62Q	-0.78 ± 0.29
A62N	-0.828 ± 0.4
A62R	-0.734 ± 0.083
A62C	-0.768 ± 0.23
A62E	-0.902 ± 0.15
A62T	-0.794 ± 0.12
R48W	-0.184 ± 0.044
R48L	-0.328 ± 0.046
R48I	-0.205 ± 0.08
R48P	-0.714 ± 0.11
R48C	-0.114 ± 0.05
R48D	-0.626 ± 0.12
R48N	-0.368 ± 0.1
R48K	-0.451 ± 0.066
R48M	-0.217 ± 0.054
R48G	-0.597 ± 0.043

Variant	abundance fitness
R48A	-0.113 ± 0.04
R48Y	0.045 ± 0.064
R48H	-0.118 ± 0.085
R48Q	-0.257 ± 0.058
R48E	-0.752 ± 0.088
R48T	-0.158 ± 0.049
R48V	-0.093 ± 0.034
A56N	-0.078 ± 0.078
A56I	-0.024 ± 0.11
A56C	-0.102 ± 0.07
A56M	0.081 ± 0.062
A56F	0.032 ± 0.11
A56Q	0.076 ± 0.062
A56G	-0.077 ± 0.034
A56T	0.026 ± 0.066
A56L	0.026 ± 0.051
A56W	-0.269 ± 0.052
A56D	-0.029 ± 0.06
A56R	-0.039 ± 0.035
A56K	0.029 ± 0.055
A56H	-0.027 ± 0.089
A56Y	-0.245 ± 0.091
A56V	-0.072 ± 0.047
A56E	-0.044 ± 0.047

Variant	abundance fitness
S58T	-0.241 ± 0.051
S58E	0.052 ± 0.038
S58F	-0.149 ± 0.14
S58I	-0.988 ± 0.43
S58L	-0.801 ± 0.076
S58W	-0.949 ± 0.11
S58G	-0.227 ± 0.035
S58D	0.009 ± 0.068
S58K	-0.3 ± 0.06
S58Q	0.08 ± 0.045
S58M	-0.354 ± 0.06
S58C	-0.241 ± 0.076
S58V	-0.568 ± 0.052
S58N	0.009 ± 0.14
S58P	-0.47 ± 0.082
G54M	-1.02 ± 0.26
G54P	-0.805 ± 0.12
G54A	-0.916 ± 0.083
G54H	-0.465 ± 0.21
G54T	-0.854 ± 0.12
G54F	-0.507 ± 0.25
G54C	-0.85 ± 0.18
G54D	-0.834 ± 0.19
G54K	-0.804 ± 0.18

Variant	abundance fitness
G54E	-0.838 ± 0.13
G54W	-0.912 ± 0.14
G54S	-0.881 ± 0.11
G54L	-0.877 ± 0.12
G54Y	-1.08 ± 0.46
G54Q	-1.11 ± 0.29
S46W	-0.125 ± 0.069
S46T	-0.063 ± 0.046
S46D	0.19 ± 0.076
S46M	-0.139 ± 0.054
S46Q	-0.048 ± 0.048
S46E	-0.088 ± 0.057
S46K	-0.002 ± 0.044
S46V	-0.179 ± 0.067
S46P	-0.029 ± 0.049
S46L	0.064 ± 0.041
S46N	0.069 ± 0.052
S46H	-0.205 ± 0.084
S46I	-0.104 ± 0.08
S46Y	-0.117 ± 0.057
S46R	-0.106 ± 0.048
S46G	-0.032 ± 0.057
S46F	0.002 ± 0.075
G47L	0 ± 0.03

Variant	abundance fitness
G47P	-0.491 ± 0.075
G47R	-0.062 ± 0.035
G47C	-0.097 ± 0.062
G47T	0.008 ± 0.052
G47Q	0.054 ± 0.056
G47E	0.067 ± 0.039
G47H	-0.129 ± 0.094
G47D	0.032 ± 0.062
G47N	0.047 ± 0.099
G47W	-0.073 ± 0.047
G47V	0.017 ± 0.029
G47F	-0.116 ± 0.096
G47Y	-0.008 ± 0.085
G47M	0.043 ± 0.041
G47S	0.023 ± 0.043
G47K	-0.01 ± 0.052
G47I	-0.379 ± 0.18
G47A	0.013 ± 0.036
Q49K	-0.049 ± 0.063
Q49P	-0.298 ± 0.064
Q49R	0.049 ± 0.029
Q49V	0.043 ± 0.034
Q49N	-0.054 ± 0.058
Q49W	-0.613 ± 0.071

Variant	abundance fitness
Q49I	-0.033 ± 0.063
Q49M	-0.081 ± 0.045
Q49H	-0.073 ± 0.069
Q49F	-0.533 ± 0.16
Q49L	0.03 ± 0.041
Q49C	0.006 ± 0.051
Q49D	-0.263 ± 0.069
Q49Y	-0.543 ± 0.12
Q49E	-0.204 ± 0.064
Q49S	0.008 ± 0.04
Q49A	0.006 ± 0.043
V50M	-0.202 ± 0.056
V50Y	-0.57 ± 0.46
V50C	-0.147 ± 0.093
V50S	-0.882 ± 0.16
V50N	-0.819 ± 0.25
V50A	-0.639 ± 0.089
V50R	-0.818 ± 0.11
V50T	-0.901 ± 0.17
V50L	-0.069 ± 0.035
V50K	-0.7 ± 0.14
V50E	-0.714 ± 0.12
V50H	-0.596 ± 0.35
V50D	-0.796 ± 0.25

Variant	abundance fitness
V50F	-0.602 ± 0.19
V50W	-0.989 ± 0.2
V50I	0.047 ± 0.088
V50G	-0.865 ± 0.089
S55A	-0.239 ± 0.042
S55I	-0.882 ± 0.31
S55P	-0.102 ± 0.049
S55W	-0.575 ± 0.065
S55K	-0.25 ± 0.046
S55L	-0.786 ± 0.1
S55T	0.001 ± 0.047
S55H	-0.047 ± 0.085
S55N	-0.017 ± 0.07
S55M	-0.536 ± 0.1
S55Y	-0.119 ± 0.17
S55E	-0.086 ± 0.034
S55C	-0.252 ± 0.069
S55D	-0.13 ± 0.068
S55Q	-0.336 ± 0.051
S55G	-0.21 ± 0.034
S55V	-0.396 ± 0.056
S55F	-0.551 ± 0.33
